Assay results as given in paper PMC9929655 (The Journal of Cell Biology, 2023).

T1: Sro7 (full length) (yeast, UniProt Q12038 1-1033)
T1 sequence: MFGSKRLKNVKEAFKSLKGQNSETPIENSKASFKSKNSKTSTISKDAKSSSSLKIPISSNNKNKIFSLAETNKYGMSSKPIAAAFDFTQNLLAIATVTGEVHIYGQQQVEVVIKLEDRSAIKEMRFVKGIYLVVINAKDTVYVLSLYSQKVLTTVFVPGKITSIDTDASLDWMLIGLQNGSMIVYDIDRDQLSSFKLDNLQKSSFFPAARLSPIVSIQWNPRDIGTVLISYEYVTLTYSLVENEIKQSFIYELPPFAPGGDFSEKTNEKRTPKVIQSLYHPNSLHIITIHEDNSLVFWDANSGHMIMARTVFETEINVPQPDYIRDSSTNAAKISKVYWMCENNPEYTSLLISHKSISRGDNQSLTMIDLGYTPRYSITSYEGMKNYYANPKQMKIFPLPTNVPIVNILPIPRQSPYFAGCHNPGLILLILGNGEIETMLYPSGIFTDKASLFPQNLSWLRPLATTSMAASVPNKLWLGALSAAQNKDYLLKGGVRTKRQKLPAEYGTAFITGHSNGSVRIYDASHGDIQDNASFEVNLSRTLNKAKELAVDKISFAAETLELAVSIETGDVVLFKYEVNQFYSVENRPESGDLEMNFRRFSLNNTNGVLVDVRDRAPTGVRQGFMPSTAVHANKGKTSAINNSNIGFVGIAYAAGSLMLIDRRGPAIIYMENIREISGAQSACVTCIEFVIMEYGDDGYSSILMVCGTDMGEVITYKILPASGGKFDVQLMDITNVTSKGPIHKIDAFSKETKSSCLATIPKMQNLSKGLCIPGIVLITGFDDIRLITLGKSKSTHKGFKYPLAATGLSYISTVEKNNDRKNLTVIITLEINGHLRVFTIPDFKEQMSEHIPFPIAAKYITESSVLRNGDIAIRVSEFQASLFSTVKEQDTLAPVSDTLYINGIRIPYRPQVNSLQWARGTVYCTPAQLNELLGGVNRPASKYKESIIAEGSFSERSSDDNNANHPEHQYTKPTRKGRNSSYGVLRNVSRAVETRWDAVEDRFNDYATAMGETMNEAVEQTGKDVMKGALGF

B1: C-terminally tagged GST-Sro7-NT (aa 1–79) (domain or fragment)
chain: MFGSKRLKNVKEAFKSLKGQNSETPIENSKASFKSKNSKTSTISKDAKSSSSLKIPISSNNKNKIFSLAETNKYGMSSK
B2: His-tagged Sro7-NT (aa 1–90) (domain or fragment)
chain: MFGSKRLKNVKEAFKSLKGQNSETPIENSKASFKSKNSKTSTISKDAKSSSSLKIPISSNNKNKIFSLAETNKYGMSSKPIAAAFDFTQN
B3: GST-Exo84 (aa 1–326) (domain or fragment)
chain: MVEFSLKKARNNWKHVKKSASSPAKQKTPPSPAKPKQKTKKNPYSDLKDPATSYTLPTINARERSRVATSMQRRLSIHNTNYAPPTLDYSMPLPDMPNMIVPNDNVDSSHNNSSFTTENESVSSKGPSNSLNLSTADLSLNDSSYNKVPARSAMRNTVNPSGSNDPFNNSTSLRKMLANPHFNAKDFVHDKLGNASAITIDKFTSNLTDLSIQVQEEVKLNINKSYNEIMTVNNDLNVAMLELKRVRANINDLNEVLDQCTKIAEKRLQLQDQIDQERQGNFNNVESHSNSPALLPPLKAGQNGNLMRRDRSSVLILEKFWDTELD

Assays:
Assay in all cases: pull-down
[1] = molecular target: His-tagged Exo84 (aa 1–326) (S. cerevisiae, UniProt P38261 1-326)
GST-Exo84 (aa 1–326) = molecular target: B3
Sro7 (full length) = molecular target: T1, Sro7 (full length)

Binder: B1
- binding result [1]: binds

Binder: B2
- binding result (GST-Exo84 (aa 1–326)): binds

Binder: B3
- binding result (Sro7 (full length)): binds
